Source: PMC8928829

Biological target: NIH-CoVnb-112
Test: BLI

NIH-CoVnb-112, sequence (heavy, as listed by the source): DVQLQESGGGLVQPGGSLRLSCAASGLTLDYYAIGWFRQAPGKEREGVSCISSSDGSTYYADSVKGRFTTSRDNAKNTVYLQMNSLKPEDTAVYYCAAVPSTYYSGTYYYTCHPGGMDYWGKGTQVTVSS

SARS-CoV-2 RBD K417N (from UniProt P0DTC2) (domain or fragment)
Kd: 1.42 nM

SARS-CoV-2 RBD L452R (from UniProt P0DTC2) (domain or fragment)
Kd: 4.88 nM

SARS-CoV-2 RBD T478K (from UniProt P0DTC2) (domain or fragment)
Kd: 0.497 nM
